Laboratory results reported in paper PMC11849073, “Specific recognition mechanism of an antibody to sulfated tyrosine and its potential use in biological research” (The Journal of Biological Chemistry, 2025).
Where two headings read alike, the source gives them in different places.

Columns and labels:
[1] = tested on: sulfated CCR5 on HEK293 cells transfected with CCR5 + TPST2 (C2); assay: Flow cytometry binding to C2 cells; format: cell-based
Excerpt: (§1) We prepared model cells with transient overexpression to examine whether BA8 can recognize sulfated full-length CCR5. As referred in the Introduction section, previous research has shown that protein tyrosine sulfotransferases (TPSTs) are responsible for tyrosine sulfation ([10], [11], [12]). Those two isoforms of TPST (TPST1 and TPST2) and CCR5 genes were transiently transfected in the following five combinations to HEK293 cells: Negative Control (NC); CCR5 (C); CCR5 + TPST1 (C1); CCR5 + TPST2 (C2); and CCR5 + TPST1 + TPST2 (C12). Each protein contained the following tag sequences at the C-terminus: CCR5 – FLAG, TPST1 – HA, and TPST2 – Myc. The overexpression of each protein was confirmed by western blotting using tag antibodies (Fig. 5, A and B).
(§2) We conducted flow cytometry using these cells to confirm that BA8 can recognize sulfated CCR5 expressed on the cell surface (Fig. 5D).
(§3) To quantitatively evaluate the binding ability of BA8 to C2 and C12 cells, we plotted the median fluorescence intensity of antibody binding against BA8 concentration (Fig. 5E). An increase in the signal with increasing antibody concentration was confirmed, and the binding activity was quantitatively evaluated by fitting with a sigmoid function.
(§4) HEK293 cells stored in liquid nitrogen were initiated into the culture by thawing. […]

[2] = tested on: sulfated N-terminal peptide of CCR5; assay: ITC analysis of BA8 Fab (wild type and mutants) with the sulfated peptide; format: binding; details: 10 μM Fab in cell, 100 μM sulfated peptide in syringe, PBS, 25 °C
Excerpt: To determine the thermodynamic parameters accompanying the interaction, we performed an ITC analysis (Fig. 2B, Table 2).
To further dissect how molecular recognition occurs, we evaluated the contribution of individual residues of BA8 to the recognition of the sulfated peptide. We analyzed the crystal structure using the PDB PISA server, and we conducted mutation analyses in which the residues predicted to form hydrogen bonds or located at the interface were mutated to alanine (Fig. 3B).
The ITC experiments were performed using a MicroCal PEAQ-ITC (Malvern Panalytical, Malvern, UK). The BA8 Fab fragment antibody, sufficiently dialyzed in PBS, was adjusted to 10 μM for the cells, and the CCR5 N-terminal peptide, dissolved in the dialysate, was adjusted to 100 μM for the syringe. The first injection of 0.5 μl (omitted from the analysis) was followed by 19 injections of 2 μl with 120 s intervals at a constant temperature of 25 °C. The titration syringe was continuously stirred at 750 rpm.
The baselines were smoothly adjusted for the step after each titration saturated and fitted as one set of sites binding in MicroCal PEAQ-ITC Analysis Software (Malvern Panalytical, Malvern, UK).

[3] = tested on: CCR5 sulfated by TPST2 in cell lysates; assay: Western blotting of transfected HEK293 cell lysates with BA8 as detection antibody; format: binding; details: 100 nM BA8 (full-length IgG) as detection antibody; lysates of NC, C, C1, C2, C12 cells
Excerpt: as §1
We prepared recombinant BA8 as a full-length IgG form for subsequent cell-based assays (Fig. S2, C and D).
The cell lysate suspended in RIPA Buffer was placed on ice for 30 min, followed by centrifugation at 20,000 × g for 20 min. […] Protein bands were detected by incubating the membranes with anti-DDDDK-tag mAb-HRP-DirecT, anti-HA tag mAb-HRP-DirecT, anti-Myc tag mAb-HRP-DirecT (all from MBL Lifescience), or each IgG followed by incubation with horseradish peroxidase (HRP)-conjugated anti-rabbit IgG, HRP-linked antibody (Cell Signaling Technology) at room temperature for 30 min. […]

[4] = DSF thermal stability of BA8 Fab and mutants; format: physicochemical
Protocol: To assess the effect of sulfated peptide binding on the thermal stability of BA8, we performed differential scanning fluorimetry (DSF) measurements (Fig. 2C) ([25]). The melting temperature (Tm) of BA8 forming a complex with the sulfated peptide was 75.6 °C, whereas the pre-binding Tm was 70.8 °C.
We evaluated the stabilizing effect of peptide binding on each mutant using DSF (Fig. S6).
The DSF thermal stability measurements were performed using a CFX Real-Time PCR System (Bio-Rad). First, 1 μl of 100 × SYPRO Orange stain was diluted with 19 μl of 8.3 μM unbound-BA8 Fab or the solution remaining in the cell after ITC measurement. Next, fluorescence was scanned every minute to obtain melting curves of the solutions as they were heated at 1.0 °C/min. The change in the scanned relative fluorescence unit per unit time was recorded, and the temperature at its peak was considered to be the melting temperature (Tm) ([42]).

[5] = tested on: sulfated CCR5 on HEK293 cells transfected with CCR5 + TPST1 + TPST2 (C12); assay: Flow cytometry binding to C12 cells; format: cell-based; details: BA8 full-length IgG, median fluorescence intensity vs concentration, sigmoid fit, read-out: half-maximal binding concentration (BC50)
Excerpt: as §1, §2, §3, §4

[6] = tested on: CCR5 on HEK293 cells transfected with CCR5 (C) or CCR5 + TPST1 (C1); assay: Flow cytometry binding to C and C1 cells; format: cell-based; details: cells overexpressing only CCR5 or CCR5 and TPST1
Excerpt: as §1, §2
HEK293 cells stored in liquid nitrogen were initiated into the culture by thawing. After the third passage, at 70% confluency, they were transfected with pCAGGS expression vectors containing CCR5, TPST1, or TPST2 using Lipofectamine 3000 Transfection Reagent (ThermoFisher Scientific). To exclude artifacts caused by the transfection operation itself, empty vectors without the objective protein were transfected if the protein was not to be expressed. […]

B1: BA8: rabbit antibody clone from phage display that specifically recognizes the sulfated N-terminal peptide of CCR5 (antibody, V domains shown)
VH: QSLEESGGGLFKPTDTLTLTCTVSGFSLSSYSIRWVRQAPGNGLEWIGAIGSGGNAYYTSWAKSRSTITRNTNENTVTLKMTSLTVADTATYFCARGGINFGIWGPGTLVTVSS
VL: AAVLTQTPSPVSAAVGSTVTINCQSSQSVYSKNWLSWFQQKPGQPPKQLIYSASTLDSGVPSRFSGSGSGTQFTLTISGVQCDDAATYYCQGTYGDASAFGGGTEVVVK
EC50 ([1]; C2 cells, BA8 full-length IgG, median fluorescence intensity vs concentration, sigmoid fit, read-out: half-maximal binding concentration (BC50)): 3.64 nM | EC50 ([1]; HEK293 overexpression system, C2 or C12 not specified, read-out: BC50 in overexpression system using HEK293 cells (approximate, discussion)): ~3 nM | ΔH [2]: -28.7 kcal/mol | recognition of CCR5 in cell lysates by western blotting, in words [3]: specifically recognized CCR5 in the lysates of cells C2 and C12 | melting temperature (Tm), unbound (pre-binding) ([4]; SYPRO Orange, 8.3 μM unbound Fab, heated at 1.0 °C/min): 70.8 °C | melting temperature (Tm) of BA8 forming a complex with the sulfated peptide ([4]; SYPRO Orange, solution remaining in the cell after ITC measurement, 1.0 °C/min): 75.6 °C | increase of Tm after forming a complex with the sulfated peptide versus BA8 alone ([4]; complex from the ITC measurement): 4.8 °C | EC50 [5]: 3.71 nM | binding to C and C1 cells in flow cytometry, in words [6]: slight binding
